Assay results from publication PMC5264503, “Structural and biophysical analysis of nuclease protein antibiotics” (Biochemical Journal, 2016).

Assays:
[1] = molecular target: wild-type ColE9 (colicin E9) (E. coli) (UniProt P09883); assay: stopped-flow fluorescence; wild-type ColE9 under the same conditions (PBS pH 7.4, 25 °C); data not shown
pyocin S2 = pyocin S2 (P. aeruginosa, UniProt Q06584 1-689); assay: SAXS; conditions: both partners purified
pyocin S2, sequence (Q06584 whole entry): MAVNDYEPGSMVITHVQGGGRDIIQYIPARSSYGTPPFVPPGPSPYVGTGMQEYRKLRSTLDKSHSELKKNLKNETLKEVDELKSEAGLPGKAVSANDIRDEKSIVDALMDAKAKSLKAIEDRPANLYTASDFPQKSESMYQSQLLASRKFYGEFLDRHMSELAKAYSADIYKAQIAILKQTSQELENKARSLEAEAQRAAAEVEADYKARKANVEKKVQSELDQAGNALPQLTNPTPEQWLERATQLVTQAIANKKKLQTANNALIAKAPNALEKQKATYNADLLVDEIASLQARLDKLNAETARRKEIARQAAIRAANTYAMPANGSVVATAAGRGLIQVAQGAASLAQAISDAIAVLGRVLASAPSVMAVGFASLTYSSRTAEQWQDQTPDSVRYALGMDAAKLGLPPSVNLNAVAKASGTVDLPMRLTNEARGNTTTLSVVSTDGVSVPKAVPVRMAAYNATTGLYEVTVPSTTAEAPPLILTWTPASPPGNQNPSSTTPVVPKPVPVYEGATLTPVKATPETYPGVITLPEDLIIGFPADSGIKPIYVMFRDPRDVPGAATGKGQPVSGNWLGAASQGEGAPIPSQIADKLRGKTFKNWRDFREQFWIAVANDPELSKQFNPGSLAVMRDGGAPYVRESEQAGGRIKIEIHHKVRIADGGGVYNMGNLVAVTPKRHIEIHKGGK

Im9 (immunity protein 9), sequence (P13479 whole entry): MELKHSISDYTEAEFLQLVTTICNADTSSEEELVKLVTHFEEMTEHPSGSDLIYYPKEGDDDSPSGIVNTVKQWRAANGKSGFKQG
wild-type ColE9 (colicin E9) (E. coli), sequence (P09883 whole entry): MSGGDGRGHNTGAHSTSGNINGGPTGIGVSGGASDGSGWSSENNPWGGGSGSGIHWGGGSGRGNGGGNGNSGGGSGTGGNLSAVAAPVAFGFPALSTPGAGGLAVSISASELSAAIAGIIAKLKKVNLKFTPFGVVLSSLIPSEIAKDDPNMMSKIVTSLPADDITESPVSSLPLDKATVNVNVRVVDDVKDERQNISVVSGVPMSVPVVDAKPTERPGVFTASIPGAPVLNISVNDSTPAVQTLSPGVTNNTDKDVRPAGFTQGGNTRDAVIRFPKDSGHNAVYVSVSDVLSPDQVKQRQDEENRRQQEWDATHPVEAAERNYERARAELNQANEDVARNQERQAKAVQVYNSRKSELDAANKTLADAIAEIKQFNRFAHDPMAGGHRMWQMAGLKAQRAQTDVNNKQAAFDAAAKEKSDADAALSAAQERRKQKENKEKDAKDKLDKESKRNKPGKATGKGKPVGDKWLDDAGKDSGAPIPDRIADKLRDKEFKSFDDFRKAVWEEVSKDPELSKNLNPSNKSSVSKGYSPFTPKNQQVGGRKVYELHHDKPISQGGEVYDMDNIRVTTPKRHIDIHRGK

| Molecule | k1 (bimolecular collision) [1] [M⁻¹ s⁻¹] | k2 app (conformational change) [1] [s⁻¹] | binding result (pyocin S2) |
| --- | --- | --- | --- |
| Im9 (immunity protein 9) (from UniProt P13479 1-86) (natural protein) | 1.28e+08 | 2.76 |  |
| ImS2 (pyocin S2 immunity protein) (natural protein, not shown: His6, C-terminal, kept) MKSKISEYTEKEFLEFVKDIYTNNKKKFPTEESHIQAVLEFKKLTEHPSGSDLLYYPNENREDSPAGVVKEVKEWRASKGLPGFKAG |  |  | binds |
